Assay results reported in article PMC4631838, “Molecular architecture of the yeast Mediator complex” (eLife, 2015).

Key:
[1] = biological target: T1, Med15 (Gal11), Mediator Tail module subunit (S. cerevisiae, UniProt P19659 1-1081); assay: cross-linking; BS3 (unlabeled, or 50:50 with 2H12-labeled BS3) on the purified native holoenzyme; 150 mM NaPO4, 150 mM KOAc, pH 7.5, 5% glycerol, 2 mM DTT; procedure A 2.7 mM reagent 120 min on ice; trypsin digest, LC-MS/MS, Protein Prospector; conditions: both partners purified
T1 construct: Med15 (Gal11), S. cerevisiae, endogenous; source: endogenous, S. cerevisiae CB010 double-tagged strain; within the purified native holoenzyme
T1 sequence (looked up): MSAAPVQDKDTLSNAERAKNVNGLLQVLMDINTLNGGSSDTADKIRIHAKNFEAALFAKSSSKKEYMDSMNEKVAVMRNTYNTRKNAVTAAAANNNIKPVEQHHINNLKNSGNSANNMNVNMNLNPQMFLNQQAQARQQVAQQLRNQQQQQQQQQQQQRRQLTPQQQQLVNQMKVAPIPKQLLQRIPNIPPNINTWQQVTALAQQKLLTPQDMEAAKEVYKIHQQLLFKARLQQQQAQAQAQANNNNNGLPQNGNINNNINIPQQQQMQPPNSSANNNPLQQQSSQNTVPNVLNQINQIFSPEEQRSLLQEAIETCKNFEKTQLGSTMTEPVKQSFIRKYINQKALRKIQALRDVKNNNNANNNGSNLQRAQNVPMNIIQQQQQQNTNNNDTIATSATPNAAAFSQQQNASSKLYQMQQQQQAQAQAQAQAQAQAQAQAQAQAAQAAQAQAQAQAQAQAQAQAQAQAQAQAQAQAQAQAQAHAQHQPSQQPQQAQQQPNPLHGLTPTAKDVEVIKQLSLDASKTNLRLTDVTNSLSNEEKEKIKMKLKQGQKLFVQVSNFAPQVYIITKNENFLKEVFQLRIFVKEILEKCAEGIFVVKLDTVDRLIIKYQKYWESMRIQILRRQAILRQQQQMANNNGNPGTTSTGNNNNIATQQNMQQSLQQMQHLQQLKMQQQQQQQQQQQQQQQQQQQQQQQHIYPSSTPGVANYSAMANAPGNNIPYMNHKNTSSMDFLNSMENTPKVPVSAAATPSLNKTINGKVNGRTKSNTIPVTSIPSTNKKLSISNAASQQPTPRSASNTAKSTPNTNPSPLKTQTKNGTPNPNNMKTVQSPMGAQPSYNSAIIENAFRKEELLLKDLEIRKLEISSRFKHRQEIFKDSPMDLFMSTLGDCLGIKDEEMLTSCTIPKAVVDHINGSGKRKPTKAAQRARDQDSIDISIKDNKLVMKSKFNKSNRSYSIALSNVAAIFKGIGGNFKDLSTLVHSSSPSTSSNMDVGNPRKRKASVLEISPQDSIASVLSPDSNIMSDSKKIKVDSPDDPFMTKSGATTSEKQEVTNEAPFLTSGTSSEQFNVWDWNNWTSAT

[2] = biological target: T2, Med5 (Nut1), Mediator Tail module subunit (S. cerevisiae, UniProt P53114 1-1132); assay: as above; conditions: both partners purified
T2 construct: Med5 (Nut1), S. cerevisiae, endogenous; source: endogenous, S. cerevisiae CB010 double-tagged strain; within the purified native holoenzyme
T2 sequence (looked up): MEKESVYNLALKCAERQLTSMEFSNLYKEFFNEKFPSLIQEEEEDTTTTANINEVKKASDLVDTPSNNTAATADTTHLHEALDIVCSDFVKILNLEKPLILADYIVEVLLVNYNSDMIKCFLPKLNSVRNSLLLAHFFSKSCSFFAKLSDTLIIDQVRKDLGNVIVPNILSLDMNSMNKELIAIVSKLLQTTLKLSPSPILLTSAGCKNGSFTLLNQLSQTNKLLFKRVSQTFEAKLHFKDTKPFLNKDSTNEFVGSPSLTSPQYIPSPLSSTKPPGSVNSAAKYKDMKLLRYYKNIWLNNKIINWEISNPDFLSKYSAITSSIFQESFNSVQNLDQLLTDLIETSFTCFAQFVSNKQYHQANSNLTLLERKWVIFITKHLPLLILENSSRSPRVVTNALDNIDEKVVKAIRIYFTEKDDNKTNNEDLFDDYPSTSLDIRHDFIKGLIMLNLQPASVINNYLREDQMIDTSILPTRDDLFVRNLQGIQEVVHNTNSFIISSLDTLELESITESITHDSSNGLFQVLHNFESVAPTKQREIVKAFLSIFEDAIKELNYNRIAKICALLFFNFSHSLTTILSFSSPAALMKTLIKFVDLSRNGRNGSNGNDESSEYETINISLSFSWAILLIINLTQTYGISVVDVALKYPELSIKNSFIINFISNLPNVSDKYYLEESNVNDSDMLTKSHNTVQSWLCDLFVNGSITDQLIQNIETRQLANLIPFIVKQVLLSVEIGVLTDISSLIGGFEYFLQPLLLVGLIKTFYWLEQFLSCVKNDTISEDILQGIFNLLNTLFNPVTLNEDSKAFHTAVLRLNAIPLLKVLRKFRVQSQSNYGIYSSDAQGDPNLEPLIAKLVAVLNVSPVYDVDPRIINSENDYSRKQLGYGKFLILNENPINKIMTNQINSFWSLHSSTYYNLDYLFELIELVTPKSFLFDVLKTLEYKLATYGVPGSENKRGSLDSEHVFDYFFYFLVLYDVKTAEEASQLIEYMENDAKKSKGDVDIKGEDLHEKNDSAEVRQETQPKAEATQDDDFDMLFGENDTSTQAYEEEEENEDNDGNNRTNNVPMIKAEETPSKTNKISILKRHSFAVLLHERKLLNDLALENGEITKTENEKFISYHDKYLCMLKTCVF

B1: Med16 (Sin4), Mediator Tail module subunit (natural protein, S. cerevisiae, UniProt P32259 1-974, looked up)
chain: MMLGEHLMSWSKTGIIAYSDSQSSNANICLTFLESINGINWRFHTPQKYVLHPQLHEVQYQESSSTLSTHSTTTSVNGSTTAGVGSTPNFGGNSNKSPPQFFYNISSIHWNNWFSLPGDMLAVCDELGNMTMLITGQRPDRATTYEKLTMVFQDNVYKIYNHVMPLKPVDKLKPMNIERKQTRKEYNTSILEFRWLTSSKSVIVSQFCAFDSSSNTYRSRAQQVPPYGVYHPPFIKYACLAIRKNGQIDFWYQFSNSKDHKKITLQLLDTSNQRFKDLQWLEFARITPMNDDQCMLITTYSKLSKNISFYKLHVNWNLNATKPNVLNDPSLKIQFILSTTLDPTDDEGHVLKLENLHVVSKSSIEKDPSPEILVLYNVCDTSKSLVKRYRLAPTQLSAEYLVILKPDLNIDRNNSTNQIFQSRRYNLRRHSDIVLDKKVTLITSEMFDAFVSFYFEDGTIESYNQNDWKLETERLISQSQLGKFKNIIASPLSAGFNYGKLPLPPSVEWMKVSPSMCGVIVKQYNKKWPQFYAAVQKNYADPEKDSINATALAFGYVKSLHKQISAEDLTIAAKTHILRISFLDRKRAKEFITTLLKSLYSFFNISPDAPKEIMDKIITSRPLQKIMLLQLELGSCFSQENIEEMARVILYLKNVLFAFNGVARNFHFAIEQISNNSNQQQNPKLFQTIFSKQDLIHSLIPVAKWFVKFITYLTQEILILINDPTNKEYTLVHGIFGAKMSRTLILSILNEIKKVTQIVAKFPETSYPILNESSTFLKLVLSESPVDFEKFETFLVDVNNKFIALCEQQPSQEREFSLLVKAEIPPEYAKVGDFLLQYANNAVISHANAAAVYFADTSGLKISNSEFFNPEIFHLLQPLEEGLIIDTDKLPIKNRTSKSFSKLLYDDVTCDKLSVSEISDGKLKRCSRCGSVTRAGNIISSDKTIVPTSIQTKRWPTMYTRLCICSGMLFEMDG
notes: Med16 (Sin4), S. cerevisiae, endogenous; source: endogenous, S. cerevisiae CB010 double-tagged strain; within the purified native holoenzyme
B1: binds [1]; binds [2].
